# T1: human TIGIT, full length, on cells (human, UniProt Q495A1 22-244)
# T1 construct: also called hTIGIT; hTIGIT-CHO
# T1 sequence: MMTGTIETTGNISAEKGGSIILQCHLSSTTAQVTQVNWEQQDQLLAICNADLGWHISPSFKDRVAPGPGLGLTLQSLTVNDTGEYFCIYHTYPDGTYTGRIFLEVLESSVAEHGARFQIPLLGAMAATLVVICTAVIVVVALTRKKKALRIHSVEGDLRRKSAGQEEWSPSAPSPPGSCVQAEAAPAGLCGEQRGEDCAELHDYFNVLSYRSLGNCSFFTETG
# T2: cTIGIT-His (cynomolgus monkey)
# T2 construct: also called His-tagged cyno TIGIT protein extracellular domain; soluble cTIGIT-His
# T2 chain: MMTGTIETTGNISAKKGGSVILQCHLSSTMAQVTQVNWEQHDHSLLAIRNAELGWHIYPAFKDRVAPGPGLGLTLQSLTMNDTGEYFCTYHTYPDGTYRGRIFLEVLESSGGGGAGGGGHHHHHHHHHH
# T3: hTIGIT-His (human)
# T3 construct: also called His-tagged human TIGIT protein extracellular domain; soluble hTIGIT-His
# T3 chain: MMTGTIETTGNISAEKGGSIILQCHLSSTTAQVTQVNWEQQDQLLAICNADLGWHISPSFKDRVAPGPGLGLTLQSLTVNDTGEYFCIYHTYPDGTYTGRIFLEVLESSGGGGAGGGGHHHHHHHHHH
# How the values were obtained:
# [1] = target: T4, cynomolgus monkey TIGIT, full length, on cells (cynomolgus monkey); experiment: flow cytometry on CHO-K1 cells expressing cyno TIGIT
# T4 construct: Whole entry of 312 amino acids; also called cyno TIGIT; cTIGIT
# Method: (§1) These clones were further expanded, and antibodies were purified using a Protein G column. These purified antibodies were tested for binding to human and cyno TIGIT expressed on cell surface by flow cytometry. Stable CHO-K1 cell lines expressing full length human TIGIT clone 2A7 (Swiss-Prot Q495A1; SEQ ID NO: 80) or full length cyno TIGIT clone C10 (Swiss-Prot A0A2K5UW92; SEQ ID NO: 84) were developed. For the flow assay, cells were collected and incubated in 100 μL of HBSS buffer in the presence (or absence) of various concentrations of antibodies for 1 hr at 4° C. After washing with HBSS, antibody binding on cells was detected with 2 μg/mL of Alexa488-labeled goat anti-mouse IgG antibody (ThermoFisher Scientific, Cat #A-11001) for 30 min at 4° C. Cells were then washed and resuspended in PBS and subjected to flow cytometry using an Attune NxT flow cytometer (ThermoFisher Scientific, Waltham, Mass.). The geometric mean of the fluorescence intensity was obtained for the whole single cell population. Antibodies capable of binding to both human and cyno TIGIT expressed on cell surface were further tested for their blocking activity against recombinant human CD155 binding to human TIGIT on the surface of CHO cells. CHO-hTIGIT cells (10⁵ cells) were incubated with 2.5 μg/mL hCD155-Fc protein in the presence of various concentrations of antibody at room temperature for 1 hr. […] Cells were then washed and subjected to flow cytometry analysis.
# [2] = target: T1, human TIGIT, full length, on cells; experiment: flow cytometry, inhibition of hCD155-Fc binding to CHO-hTIGIT cells
# Method: as §1
# [3] = target: T1, human TIGIT, full length, on cells; experiment: flow cytometry on CHO-K1 cells expressing human TIGIT
# Method: as §1
# cTIGIT-His = target: T2, cTIGIT-His; experiment: SPR, Biacore 8K, Fab-SASA supernatant captured on BSA chip, cTIGIT-His as analyte
# Excerpt: (§2) Oligonucleotides were designed and synthesized as Fab fragments with human IgG1/kappa constant domains for the two VH and two VL grafted human acceptors and inserted into a vector system for high throughput screening of expression levels and biophysical properties, without the need for protein purification (Zhang & Hirama, Patent Application Publication US 2012/0178110). All four combinations of VH1 (SEQ ID NO: 76) or VH2 (SEQ ID NO: 78) with VL1 (SEQ ID NO: 79) or VL2 (SEQ ID NO: 77) (FIGS. 1J-1M) were screened along with a chimera Fab mVH+mVL constructed from the mouse 24F8VH (SEQ ID NO: 5) & 24F8VL (SEQ ID NO: 6) domains and human IgG1/kappa Fab constant domains. Supernatants of the Fabs, secreted as a SASA (single-domain antibody against serum albumin) fusion proteins were analyzed by surface plasmon resonance (SPR) using a Biacore 8K instrument with Fab capture using an BSA coated chip and soluble His-tagged TIGIT as the analyte. The kinetic binding data for human and cyno TIGIT are shown in Table 9 for the five Fab fragments.
# hTIGIT-His = target: T3, hTIGIT-His; experiment: SPR, Biacore 8K, Fab-SASA supernatant captured on BSA chip, hTIGIT-His as analyte
# Excerpt: as §2
EC50 [1] [nM],IC50 [2] [nM],EC50 [3] [nM],Kd (cTIGIT-His) [nM],koff (cTIGIT-His) [s⁻¹],kon (cTIGIT-His) [M⁻¹ s⁻¹],Kd (hTIGIT-His) [nM],koff (hTIGIT-His) [s⁻¹],kon (hTIGIT-His) [M⁻¹ s⁻¹],Binder
0.58,0.83,0.507,,,,,,,"22B22 (antibody, V domains shown, Mouse monoclonal antibody purified from hybridoma on Protein G; also called mAb 22B22; mouse anti-TIGIT clone 22B22) VH: EVQLVESGGGLVKPGGSLKLSCAASGFTFSSYAMSWVRQSPEKRLEWVAEISSGGSYTYYPDTVTGRFTISRDNAKNTLYLEMSSLRSEDTAMYYCARKRRDYYAMDYWGQGTSVTVSS VL: DVQITQSPSYLAASPGETITINCRASKSISKYLAWYQEKPGKTNKLLIYSGSTLQSGIPSRFSGSGSGTDFTLTISSLEPEDFAMYYCQQHNEYPWTFGGGTKLEIK"
1.26,1.7,0.466,,,,,,,"28P24 (antibody, V domains shown, Mouse monoclonal antibody purified from hybridoma on Protein G; also called mAb 28P24; mouse anti-TIGIT clone 28P24) VH: QVQLQQSGAELVRPGTSVKMSCKAAGYTFTNYFIGWVKQRPGHGLDWIGDIYPGGGYTNYNEKFKGKATLTADTSSSTAYMQLSSLTSEDSAIYYCVRFYGNYVFAYWGQGTLVTVSA VL: DVQITQSPSCLAASPGETITINCRASKTISKYLAWYQEKPGKTNKLLIYSGSTLQSGIPSRFSGSGSGTDFTLTISSLEPEDFAMYYCQQHNEYPWTFGGGTKLEIK"
0.631,1.66,0.506,,,,,,,"21B9 (antibody, V domains shown, Mouse monoclonal antibody purified from hybridoma on Protein G; also called mAb 21B9; mouse anti-TIGIT clone 21B9) VH: EVQLVESGGGLVKPGGSLKLSCTASGFTFSSYAMSWVRQSPEKRLEWVAEISSGGSYTYYTDTVTGRFTISRDNAKNTLYLEMSSLRSEDTAMYYCARKRRDYYGMDYWGQGTSVTVSS VL: DVQITQSPSYLAASPGETITINCRASKSISKYLAWYQEKPGKTNKLLIYSGSTLQTGIPSRFSGSGSGTDFTLTISSLEPEDFAMYYCQQHNEYPWTFGGGTKLEIK"
1.2,1.15,0.498,,,,,,,"21B16 (antibody, V domains shown, Mouse monoclonal antibody purified from hybridoma on Protein G; also called mAb 21B16; mouse anti-TIGIT clone 21B16) VH: EVQLVESGGGLVKPGGSLKLSCAASGFTFSTYAMSWVRQSPEKRLEWVAEISSGGTYTYFPDTVTGRFTISRDNAKNTLYLEMSSLRSEDTAMYYCARKRRDYYAMDYWGQGTSVTVSS VL: DVQITQSPSYLAASPGETITINCRASKSISKYLAWYQEKPGKTNKLLIYSGSTLQSGIPSRFSGSGSGTDFTLTISSLEPEDFAVYYCQQHNEYPWTFGGGTKLEIK"
0.71,1.16,0.638,,,,,,,"28O12 (antibody, V domains shown, Mouse monoclonal antibody purified from hybridoma on Protein G; also called mAb 28O12; mouse anti-TIGIT clone 28O12) VH: EVQLVESGGGLVKPGGSLKLSCAASGFTFSNYAMSWVRQSPEKRLEWVAEISGGGSYTYHPDTVTGRFTISRDNAKNTLYLEMSSLRSEDTAMYYCARKRRDYYAMDYWGQGTSVTVSS VL: DVQITQSPSYLAASPGETITINCRASKSISKYLAWYQEKPGKTNKLLIYSGSTLQSGIPSRFSGSGSGTDFTLTISSLEPEDFAMYYCQQHNEYPWTFGGGTKLEIK"
,,,1.26,0.0014,1.11e+06,0.0361,0.000111,3.08e+06,"Hu24F8.1 Fab (Fab, V domains shown, Fab with human IgG1/kappa constant domains, secreted as a SASA fusion protein and tested as supernatant; also called VH1 + VL2) VH: QVQLQESGPGLVKPSETLSLTCAVYGYSITSGYSWHWIRQPPGKGLEWIGYVHYSGSTNYNPSLKSRVTISVDTSKNQFSLKLSSVTAADTAVYYCARMDYGNYGGAMDYWGQGTLVTVSS VL: EIVMTQSPATLSVSPGERATLSCKASQDVRTAVAWYQQKPGQAPRLLIYSASYRYTGIPARFSGSGSGTEFTLTISSLQSEDFAVYYCQQYYSTQWTFGGGTKVEIK"
,,,6,0.00585,974000,0.242,0.000481,1.99e+06,"Hu24F8.3 Fab (Fab, V domains shown, Fab with human IgG1/kappa constant domains, secreted as a SASA fusion protein and tested as supernatant; also called VH2 + VL1) VH: QVQLQESGPGLVKPSGTLSLTCAVSGYSITSGYSWHWVRQPPGKGLEWIGYVHYSGSTNYNPSLKSRVTISVDKSKNQFSLKLSSVTAADTAVYYCARMDYGNYGGAMDYWGQGTLVTVSS VL: DIQMTQSPSSLSASVGDRVTITCKASQDVRTAVAWYQQKPGKAPKLLIYSASYRYTGVPSRFSGSGSGTDFTFTISSLQPEDIATYYCQQYYSTQWTFGGGTKLEIK"
,,,1.09,0.000808,742000,0.045,9.39e-05,2.08e+06,"Hu24F8.2 Fab (Fab, V domains shown, Fab with human IgG1/kappa constant domains, secreted as a SASA fusion protein and tested as supernatant; Not the same preparation as Fab24F8 (papain fragment); also called VH2 + VL2) VH: QVQLQESGPGLVKPSGTLSLTCAVSGYSITSGYSWHWVRQPPGKGLEWIGYVHYSGSTNYNPSLKSRVTISVDKSKNQFSLKLSSVTAADTAVYYCARMDYGNYGGAMDYWGQGTLVTVSS VL: EIVMTQSPATLSVSPGERATLSCKASQDVRTAVAWYQQKPGQAPRLLIYSASYRYTGIPARFSGSGSGTEFTLTISSLQSEDFAVYYCQQYYSTQWTFGGGTKVEIK"
,,,9.81,0.0133,1.35e+06,0.28,0.000855,3.05e+06,"Hu24F8.4 Fab (Fab, V domains shown, Fab with human IgG1/kappa constant domains, secreted as a SASA fusion protein and tested as supernatant; also called VH1 + VL1) VH: QVQLQESGPGLVKPSETLSLTCAVYGYSITSGYSWHWIRQPPGKGLEWIGYVHYSGSTNYNPSLKSRVTISVDTSKNQFSLKLSSVTAADTAVYYCARMDYGNYGGAMDYWGQGTLVTVSS VL: DIQMTQSPSSLSASVGDRVTITCKASQDVRTAVAWYQQKPGKAPKLLIYSASYRYTGVPSRFSGSGSGTDFTFTISSLQPEDIATYYCQQYYSTQWTFGGGTKLEIK"
1.63,1.46,0.704,,,,,,,"5J24 (antibody, V domains shown, Mouse monoclonal antibody purified from hybridoma on Protein G; also called mAb 5J24; mouse anti-TIGIT clone 5J24) VH: QVQLQQSGAELVRPGTSVKMSCKAAGYTFTNHWIGWVKQRPGHGLEWIGDIYPGGGYTNYNEKFKGKATLTADTSSSTAYMYLSSLTSEDSAIYYCARSYGYDLYAMDYWGQGTSVTVSS VL: DIQMTQSPSSLSASLGERVSLTCRASQEISGYLSWLQQKPDGTIKRLIYAASTLGSGVPKRFSGSRSGSDYSLTISSLESEDFADYYCLQYDSYPFTFGAGTKLELK"
,,,0.474,0.000728,1.54e+06,0.00127,2.37e-06,1.86e+06,"chimera Fab mVH+mVL (mouse 24F8VH and 24F8VL with human IgG1/kappa Fab constant domains) (Fab, V domains shown, also called mouse/human chimera Fab) VH: DVQLQESGPDLVKPSQSLSLTCTVTGYSITSGYSWHWIRQFPGNKLDWMGYVHYSGSTNYNPSLKSRISITRDTSKNQFFLQLNSVTTEDTATFYCARMDYGNYGGAMDYWGQGTSVTVSS VL: EIVMTQSHKFMSTSVGDRVSITCKASQDVRTAVAWYQQKPGQSPKLLIYSASYRYTGVPDRFTGSGSGTDFTFTISSVQAEDLAVYYCQQYYSTQWTFGGGTKLEIK"
1.79,1.67,0.952,,,,,,,"21F8 (antibody, V domains shown, Mouse monoclonal antibody purified from hybridoma on Protein G; also called mAb 21F8; mouse anti-TIGIT clone 21F8) VH: DVQLQESGPGLVKPSQSLSLTCTVTGYSITSDYAWNWIRQFPGNKLEWMGYISYSGSTSYNPSLKSRISITRDTSKNQFFLQLNSVTTEDTATYYCARFMITTFAMDYWGQGTAVTVSS VL: DIVMTQSHKFMSTSVGDRVSITCKASQHVSTAVAWYQQKPGQSPKLLIYSAPYRYTGVPDRFTGSGSGTDFTFTISSVQAEDLAVYYCQQHYNTLWTFGGGTKLEIK"
1.85,1.79,1.31,,,,,,,"24F8 (antibody, V domains shown, Mouse monoclonal antibody purified from hybridoma on Protein G; also called mAb 24F8; mouse anti-TIGIT clone 24F8) VH: DVQLQESGPDLVKPSQSLSLTCTVTGYSITSGYSWHWIRQFPGNKLDWMGYVHYSGSTNYNPSLKSRISITRDTSKNQFFLQLNSVTTEDTATFYCARMDYGNYGGAMDYWGQGTSVTVSS VL: EIVMTQSHKFMSTSVGDRVSITCKASQDVRTAVAWYQQKPGQSPKLLIYSASYRYTGVPDRFTGSGSGTDFTFTISSVQAEDLAVYYCQQYYSTQWTFGGGTKLEIK"
